Assay results from US11584938B2, “Plant EPSPS mutant containing L195P and S247G mutations and encoding gene and use thereof” (GEVOTO LLC, priority 2017, dated 2023).

B1: T4: wheat EPSPS mutant, SEQ ID NO: 22, mutation L216(195)P (protein)
chain: MATSVAAPAAPAGAEEVVLQPIREISGAVQLPGSKSLSNRILLLSALSEGTTVVDNLLNSEDVHYMLEALEALGLSVEADKVAKRAVVVGCGGRFPVEKDAKEEVKLFLGNAGTAMRPLTAAVVAAGGNATYVLDGVPRMRERPIGDLVVGLQQLGADVDCFLGTNCPPVRINGKGGLPGGKVKLSGSISSQYLSSLLMAAPLALEDVEIEIIDKPISVPYVEMTLKLMEHFGVTAEHSDSWDRFYIKGGQKYKSPGNAYVEGDASSASYFLAGAAITGGTVTVEGCGTTSLQGDVKFAEVLEMMGAKVTWTDTSVTVTGPPRQPFGRKHLKAVDVNMNKMPDVAMTLAVVALFADGPTAIRDVASWRVKETERMVAIRTELTKLGATVEEGPDYCIITPPEKLNITAIDTYDDHRMAMAFSLAACAEVPVTIRDPGCTRKTFPNYFDVLSTFVKN
B2: T6: wheat EPSPS mutant, SEQ ID NO: 26, mutations L216(195)P, S269(247)G and P118(101)S (protein)
chain: MATSVAAPAAPAGAEEVVLQPIREISGAVQLPGSKSLSNRILLLSALSEGTTVVDNLLNSEDVHYMLEALEALGLSVEADKVAKRAVVVGCGGRFPVEKDAKEEVKLFLGNAGTAMRSLTAAVVAAGGNATYVLDGVPRMRERPIGDLVVGLQQLGADVDCFLGTNCPPVRINGKGGLPGGKVKLSGSISSQYLSSLLMAAPLALEDVEIEIIDKPISVPYVEMTLKLMEHFGVTAEHSDSWDRFYIKGGQKYKSPGNAYVEGDASSAGYFLAGAAITGGTVTVEGCGTTSLQGDVKFAEVLEMMGAKVTWTDTSVTVTGPPRQPFGRKHLKAVDVNMNKMPDVAMTLAVVALFADGPTAIRDVASWRVKETERMVAIRTELTKLGATVEEGPDYCIITPPEKLNITAIDTYDDHRMAMAFSLAACAEVPVTIRDPGCTRKTFPNYFDVLSTFVKN
B3: T5: wheat EPSPS mutant, SEQ ID NO: 24, mutations L216(195)P and S269(247)G (protein)
chain: MATSVAAPAAPAGAEEVVLQPIREISGAVQLPGSKSLSNRILLLSALSEGTTVVDNLLNSEDVHYMLEALEALGLSVEADKVAKRAVVVGCGGRFPVEKDAKEEVKLFLGNAGTAMRPLTAAVVAAGGNATYVLDGVPRMRERPIGDLVVGLQQLGADVDCFLGTNCPPVRINGKGGLPGGKVKLSGSISSQYLSSLLMAAPLALEDVEIEIIDKPISVPYVEMTLKLMEHFGVTAEHSDSWDRFYIKGGQKYKSPGNAYVEGDASSAGYFLAGAAITGGTVTVEGCGTTSLQGDVKFAEVLEMMGAKVTWTDTSVTVTGPPRQPFGRKHLKAVDVNMNKMPDVAMTLAVVALFADGPTAIRDVASWRVKETERMVAIRTELTKLGATVEEGPDYCIITPPEKLNITAIDTYDDHRMAMAFSLAACAEVPVTIRDPGCTRKTFPNYFDVLSTFVKN

Tested on: transgenic rice plants
Test: glyphosate resistance of the EPSPS mutant in transgenic rice plants sprayed with Roundup 41% ammonium glyphosate
Format: in vivo, rice (Nipponbare)
Summary of the method: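 EPSPS mutant genes were cloned into pGVP1 and introduced into Nipponbare rice embryo-derived calluses via Agrobacterium EHA105 (OD 0.2, 10 min infection, 2–3 days co-culture at 25 °C in the dark). Calluses went through recovery, two 14-day screening rounds at 30 °C, two differentiation rounds and rooting to regenerate transgenic plants.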

[1] = 1× dosage 1060 g/hectare glyphosate sprayed, recorded on 10th day
[2] = 2× dosage 2120 g/hectare sprayed to plants surviving 1×, recorded 10 days later
[3] = 5× dosage 5300 g/hectare sprayed to plants surviving 2×, recorded 10 days later
[4] = 20× dosage 21200 g/hectare sprayed to plants surviving 5×, recorded 10 days later

Molecule	%++&+++ (percentage of plant having medium and high glyphosate resistance to the total number of plants observed) [1]	number of plants denoted by + (low glyphosate resistance) [1]	number of plants denoted by ++ (medium glyphosate resistance) [1]	number of plants denoted by +++ (high glyphosate resistance) [1]	number of plants denoted by − (no glyphosate resistance) [1]	glyphosate resistance / survival of the rice transformed by the EPSPS, in words (1× glyphosate dosage)	%++&+++ (percentage of plant having medium and high glyphosate resistance to the total number of plants observed) [2]	number of plants denoted by + (low glyphosate resistance) [2]	number of plants denoted by ++ (medium glyphosate resistance) [2]	number of plants denoted by +++ (high glyphosate resistance) [2]	number of plants denoted by − (no glyphosate resistance) [2]	&++&+++ (percentage of plant having medium and high glyphosate resistance to the total number of plants observed) [3]	number of plants denoted by + (low glyphosate resistance) [3]	number of plants denoted by ++ (medium glyphosate resistance) [3]	number of plants denoted by +++ (high glyphosate resistance) [3]	number of plants denoted by − (no glyphosate resistance) [3]	&++&+++ (percentage of plant having medium and high glyphosate resistance to the total number of plants observed) [4]	number of plants denoted by + (low glyphosate resistance) [4]	number of plants denoted by ++ (medium glyphosate resistance) [4]	number of plants denoted by +++ (high glyphosate resistance) [4]	also measured
B1	35.6%	30	18	8	7	obviously superior to that of the rice seedlings transformed by T0	18.2%	40	0	4	34	0.0%	12	0	0	66	0.0%	0	0	0	glyphosate resistance / survival of the rice transformed by the EPSPS, in words (2× glyphosate dosage): some of the transgenic rice seedlings transformed by T4, T1 and T5 still survived; glyphosate resistance / survival of the rice transformed by the EPSPS, in words (5× glyphosate dosage): some of the transgenic rice seedlings transformed by T4, T1 and T5 still survived; number of plants denoted by − (no glyphosate resistance) [4]: 78
B2	85.9%	7	15	52	4	had relatively high resistance to glyphosate	0.0%	4	25	41	8	76.9%	9	37	23	9	71.8%	7	56	0	number of plants denoted by − (no glyphosate resistance) [4]: 15
B3	45.5%	6	3	7	6	obviously superior to that of the rice seedlings transformed by T0	84.6%	8	4	0	10	18.2%	5	4	0	13	13.6%	3	3	0	glyphosate resistance / survival of the rice transformed by the EPSPS, in words (2× glyphosate dosage): some of the transgenic rice seedlings transformed by T4, T1 and T5 still survived; glyphosate resistance / survival of the rice transformed by the EPSPS, in words (5× glyphosate dosage): some of the transgenic rice seedlings transformed by T4, T1 and T5 still survived; number of plants denoted by − (no glyphosate resistance) [4]: 16
